Data on eight molecules can be found in article PMC5693750 (Journal of molecular biology, 2017).

The chains are these.
B1: Chp2 (full-length, wild type) (natural protein, S. pombe, UniProt O42934 1-380, looked up)
chain: MVKSADLDLMNSIISESDENFSPPPFTVEEAENSINNKSSTASLESPQNGSWHPSLYGLSVPEKTHIQNSLDLYSHGNSGSQKTHNVSFSCEIRKVKSSKLSPISNMEDSEDKKEEDESSSYKNEFKSSSSASVSSNFEKTSGSDDHNSQSPVPLNEGFEYIASSGSEDKNSDEEFAVEMILDSRMKKDGSGFQYYLKWEGYDDPSDNTWNDEEDCAGCLELIDAYWESRGGKPDLSSLIRLTRSRARSSNEASYVEKDESSNSDDSISYKRRRSRNAANRITDYVDSDLSESSMKEKQSKIEKYMKSDKSSKNFKPPFQKKSWEDLVDCVKTVQQLDNGKLIAKIKWKNGYVSTHDNIIIHQKCPLKIIEYYEAHIKFT
B2: Swi6 (full-length, wild type) (natural protein, S. pombe, UniProt P40381 1-328, looked up)
chain: MKKGGVRSYRRSSTSKRSVIDDDSEPELPSMTKEAIASHKADSGSSDNEVESDHESKSSSKKLKENAKEEEGGEEEEEDEYVVEKVLKHRMARKGGGYEYLLKWEGYDDPSDNTWSSEADCSGCKQLIEAYWNEHGGRPEPSKRKRTARPKKPEAKEPSPKSRKTDEDKHDKDSNEKIEDVNEKTIKFADKSQEEFNENGPPSGQPNGHIESDNESKSPSQKESNESEDIQIAETPSNVTPKKKPSPEVPKLPDNRELTVKQVENYDSWEDLVSSIDTIERKDDGTLEIYLTWKNGAISHHPSTITNKKCPQKMLQFYESHLTFRENE

For data set [1], the target named is H3Kc9me3 mononucleosome (Xenopus laevis). In words: fluorescence polarisation. Background: Fluorescence polarisation rises when a labelled molecule tumbles more slowly, as on binding a larger partner.
The target is the same in data set [2]. The data set can be described thus: AUC.
Data set [3] concerns the molecule itself. In words: AUC.
Data set [4] has as its target Unmethylated H3 tail peptide. In words: fluorescence polarisation.
The target in another data set is H3K9me3 tail peptide. The data set can be described thus: fluorescence polarisation.
Data set [5] has as its target B1. In words: fluorescence polarisation.
Data set [6] concerns the target B2. In words: fluorescence polarisation.
Data set [7] deals with the molecule itself. The data set can be described thus: AUC. This is another data set of the same source.
Data set [8] has as its target T1, Swi6 chromoshadow domain (CSD) (S. pombe, UniProt P40381 261-328).
T1 sequence: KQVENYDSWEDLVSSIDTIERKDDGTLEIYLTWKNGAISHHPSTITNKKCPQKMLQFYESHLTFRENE
The data set can be described thus: NMR titration.

Regarding “Swi6 L315D (from UniProt P40381 1-328) (natural protein)”, the fold weaker Kd than wild-type Swi6 in [1] turned out to be 8.5 fold.
Regarding “Swi6 (full-length, wild type) (from UniProt P40381 1-328) (natural protein)”, in data set [1], the Kd was determined as 0.13 µM.
In [1], “Chp2 I370E (from UniProt O42934 1-380) (natural protein)” gave a fold weaker Kd than wild-type Chp2 of 3 fold.
In turn, “Chp2 (full-length, wild type) (from UniProt O42934 1-380) (natural protein)” returned an equilibrium dissociation constant (Kd) in data set [1] of 0.43 µM. In [2], the stoichiometry N amounted to 4.
Take B1: the Kd in “AUC [3]” is 183 µM; in the data set with H3K9me3 tail peptide it was 1.85 µM. For the same molecule, the fold weaker binding than to the H3K9me3 tail peptide in data set [4] is over 10 fold.
With EKAKTSNVCVCIPCKSAEQ [Sgo1 peptide], the Kd amounted to 58.5 µM in data set [5] and 6.6 ± 2.1 µM in data set [6].
For the molecule B2, in “AUC [7]”, the binding result is recorded as “binds”. The fold weaker binding than to the H3K9me3 tail peptide in data set [4] is over 10 fold. In the data set with H3K9me3 tail peptide, this molecule yielded a fold weaker binding than Chp2 to the same peptide of 5.5 fold and a fold weaker binding than Swi6 to H3Kc9me3 nucleosomes of 77 fold.
As for RAVTQYLLHLLQKARPTSQ [Clr3 peptide], in data set [8], the Kd is 68 ± 15 µM, the “Kd fitted for residue E280” value turned out to be 62.5 ± 15.4 and the “Kd fitted for residue H321” value came to 51.9 ± 7.84.

By Kd is commonly meant the equilibrium constant for the complex coming apart. One may read the stoichiometry N as a count of units in the complex or per binding partner.
